According to IntAct's records for PubMed 7561682:

B1: Focal adhesion kinase 1 (Homo sapiens), Q05397 (parent)
chain: MAAAYLDPNLNHTPNSSTKTHLGTGMERSPGAMERVLKVFHYFESNSEPTTWASIIRHGDATDVRGIIQKIVDSHKVKHVACYGFRLSHLRSEEVHWLHVDMGVSSVREKYELAHPPEEWKYELRIRYLPKGFLNQFTEDKPTLNFFYQQVKSDYMLEIADQVDQEIALKLGCLEIRRSYWEMRGNALEKKSNYEVLEKDVGLKRFFPKSLLDSVKAKTLRKLIQQTFRQFANLNREESILKFFEILSPVYRFDKECFKCALGSSWIISVELAIGPEEGISYLTDKGCNPTHLADFTQVQTIQYSNSEDKDRKGMLQLKIAGAPEPLTVTAPSLTIAENMADLIDGYCRLVNGTSQSFIIRPQKEGERALPSIPKLANSEKQGMRTHAVSVSETDDYAEIIDEEDTYTMPSTRDYEIQRERIELGRCIGEGQFGDVHQGIYMSPENPALAVAIKTCKNCTSDSVREKFLQEALTMRQFDHPHIVKLIGVITENPVWIIMELCTLGELRSFLQVRKYSLDLASLILYAYQLSTALAYLESKRFVHRDIAARNVLVSSNDCVKLGDFGLSRYMEDSTYYKASKGKLPIKWMAPESINFRRFTSASDVWMFGVCMWEILMHGVKPFQGVKNNDVIGRIENGERLPMPPNCPPTLYSLMTKCWAYDPSRRPRFTELKAQLSTILEEEKAQQEERMRMESRRQATVSWDSGGSDEAPPKPSRPGYPSPRSSEGFYPSPQHMVQTNHYQVSGYPGSHGITAMAGSIYPGQASLLDQTDSWNHRPQEIAMWQPNVEDSTVLDLRGIGQVLPTHLMEERLIRQQQEMEEDQRWLEKEERFLKPDVRLSRGSIDREDGSLQGPIGNQHIYQPVGKPDPAAPPKKPPRPGAPGHLGSLASLSSPADSYNEGVKLQPQEISPPPTANLDRSNDKVYENVTGLVKAVIEMSSKIQPAPPEEYVPMVKEVGLALRTLLATVDETIPLLPASTHREIEMAQKLLNSDLGELINKMKLAQQYVMTSLQQEYKKQMLTAAHALAVDAKNLLDVIDQARLKMLGQTRPH

Variants of: B1
Conditions: with paxi_human PXN

effect of a mutation on the interaction	Variant
decreasing interaction	R1042G
decreasing interaction	D1039A
decreasing interaction	V1037D

Second part, the variant before the results:

Variant	effect of a mutation on the interaction
L1034S	decreasing interaction
L1035A	decreasing interaction
V935A	decreasing interaction
V928G	decreasing interaction
L931R	decreasing interaction
